Measured values taken from the supplement of paper PMC11908140.

B1: library; numbered along this chain (parent)
chain: MRKPRAAVGSGHRKQAASQEGRQKHAKNNSQAKPSACDGLARQPEEVVLQASVSSYHLFRDVAEVTAFRGSLLSWYDQEKRDLPWRRRAEDEMDLDRRAYAVWVSEVMLQQTQVATVINYYTGWMQKWPTLQDLASASLEEVNQLWAGLGYYSRGRRLQEGARKVVEELGGHMPRTAETLQQLLPGVGRYTAGAIASIAFGQATGVVDGNVARVLCRVRAIGADPSSTLVSQQLWGLAQQLVDPARPGDFNQAAMELGATVCTPQRPLCSQCPVESLCRARQRVEQEQLLASGSLSGSPDVEECAPNTGQCHLCLPPSEPWDQTLGVVNFPRKASRKPPREESSATCVLEQPGALGAQILLVQRPNSGLLAGLWEFPSVTWEPSEQLQRKALLQELQRWAGPLPATHLRHLGEVVHTFSHIKLTYQVYGLALEGQTPVTTVPPGARWLTQEEFHTAAVSTAMKKVFRVYQGQQPGTCMGSKRSQVSSPCSRKKPRMGQQVLDNFFRSHISTDAHSLNSAAQ

Variants of: B1
Assay: 8OG:A repair function score (normalized; synonymous = 0, nonsense = -1) (normalized log-likelihood score); higher = more repair activity (WT-like)
Conditions: with 8OG:A DNA repair reporter (GFP) in HEK-293 MUTYH KO cells
Procedure: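 Saturation mutagenesis (NNN codon scan) of the MUTYH cDNA (521-aa nuclear isoform NM_001048174.1 / NP_001041639), stably expressed under doxycycline induction in HEK-293 MUTYH knockout cells. Cells were co-transfected with an 8OG:A-bearing GFP repair reporter plus mCherry and sorted 72 h later into GFP+ and GFP− bins, three replicates per tile. The Rosace log2 enrichment (GFP+ vs GFP−) was converted per tile to a normalized function score with synonymous variants centered at 0 and nonsense variants (codons 1-471) at -1; low-abundance variants were removed.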

Variant	8OG:A repair function score
MRKPRAAVGSGHRKQAASQEGRQKHAKNNSQAKPSACDGLARQPEEVVLQASVSSYHLFRDVAEVTAFRGSLLSWYDQEKRDLPWRRRAEDEMDLDKRAYAVWVSEVMLQQTQVATVINYYTGWMQKWPTLQDLASASLEEVNQLWAGLGYYSRGRRLQEGARKVVEELGGHMPRTAETLQQLLPGVGRYTAGAIASIAFGQATGVVDGNVARVLCRVRAIGADPSSTLVSQQLWGLAQQLVDPARPGDFNQAAMELGATVCTPQRPLCSQCPVESLCRARQRVEQEQLLASGSLSGSPDVEECAPNTGQCHLCLPPSEPWDQTLGVVNFPRKASRKPPREESSATCVLEQPGALGAQILLVQRPNSGLLAGLWEFPSVTWEPSEQLQRKALLQELQRWAGPLPATHLRHLGEVVHTFSHIKLTYQVYGLALEGQTPVTTVPPGARWLTQEEFHTAAVSTAMKKVFRVYQGQQPGTCMGSKRSQVSSPCSRKKPRMGQQVLDNFFRSHISTDAHSLNSAAQ [R97K]	-0.0457
MRKPRAAVGSGHRKQAASQEGRQKHAKNNSQAKPSACDGLARQPEEVVLQASVSSYHLFRDVAEVTAFRGSLLSWYDQEKRDLPWRRRAEDEMDLDMRAYAVWVSEVMLQQTQVATVINYYTGWMQKWPTLQDLASASLEEVNQLWAGLGYYSRGRRLQEGARKVVEELGGHMPRTAETLQQLLPGVGRYTAGAIASIAFGQATGVVDGNVARVLCRVRAIGADPSSTLVSQQLWGLAQQLVDPARPGDFNQAAMELGATVCTPQRPLCSQCPVESLCRARQRVEQEQLLASGSLSGSPDVEECAPNTGQCHLCLPPSEPWDQTLGVVNFPRKASRKPPREESSATCVLEQPGALGAQILLVQRPNSGLLAGLWEFPSVTWEPSEQLQRKALLQELQRWAGPLPATHLRHLGEVVHTFSHIKLTYQVYGLALEGQTPVTTVPPGARWLTQEEFHTAAVSTAMKKVFRVYQGQQPGTCMGSKRSQVSSPCSRKKPRMGQQVLDNFFRSHISTDAHSLNSAAQ [R97M]	-0.0359
MRKPRAAVGSGHRKQAASQEGRQKHAKNNSQAKPSACDGLARQPEEVVLQASVSSYHLFRDVAEVTAFRGSLLSWYDQEKRDLPWRRRAEDEMDLDNRAYAVWVSEVMLQQTQVATVINYYTGWMQKWPTLQDLASASLEEVNQLWAGLGYYSRGRRLQEGARKVVEELGGHMPRTAETLQQLLPGVGRYTAGAIASIAFGQATGVVDGNVARVLCRVRAIGADPSSTLVSQQLWGLAQQLVDPARPGDFNQAAMELGATVCTPQRPLCSQCPVESLCRARQRVEQEQLLASGSLSGSPDVEECAPNTGQCHLCLPPSEPWDQTLGVVNFPRKASRKPPREESSATCVLEQPGALGAQILLVQRPNSGLLAGLWEFPSVTWEPSEQLQRKALLQELQRWAGPLPATHLRHLGEVVHTFSHIKLTYQVYGLALEGQTPVTTVPPGARWLTQEEFHTAAVSTAMKKVFRVYQGQQPGTCMGSKRSQVSSPCSRKKPRMGQQVLDNFFRSHISTDAHSLNSAAQ [R97N]	0.00607
MRKPRAAVGSGHRKQAASQEGRQKHAKNNSQAKPSACDGLARQPEEVVLQASVSSYHLFRDVAEVTAFRGSLLSWYDQEKRDLPWRRRAEDEMDLDLRAYAVWVSEVMLQQTQVATVINYYTGWMQKWPTLQDLASASLEEVNQLWAGLGYYSRGRRLQEGARKVVEELGGHMPRTAETLQQLLPGVGRYTAGAIASIAFGQATGVVDGNVARVLCRVRAIGADPSSTLVSQQLWGLAQQLVDPARPGDFNQAAMELGATVCTPQRPLCSQCPVESLCRARQRVEQEQLLASGSLSGSPDVEECAPNTGQCHLCLPPSEPWDQTLGVVNFPRKASRKPPREESSATCVLEQPGALGAQILLVQRPNSGLLAGLWEFPSVTWEPSEQLQRKALLQELQRWAGPLPATHLRHLGEVVHTFSHIKLTYQVYGLALEGQTPVTTVPPGARWLTQEEFHTAAVSTAMKKVFRVYQGQQPGTCMGSKRSQVSSPCSRKKPRMGQQVLDNFFRSHISTDAHSLNSAAQ [R97L]	-0.0375
MRKPRAAVGSGHRKQAASQEGRQKHAKNNSQAKPSACDGLARQPEEVVLQASVSSYHLFRDVAEVTAFRGSLLSWYDQEKRDLPWRRRAEDEMDLDIRAYAVWVSEVMLQQTQVATVINYYTGWMQKWPTLQDLASASLEEVNQLWAGLGYYSRGRRLQEGARKVVEELGGHMPRTAETLQQLLPGVGRYTAGAIASIAFGQATGVVDGNVARVLCRVRAIGADPSSTLVSQQLWGLAQQLVDPARPGDFNQAAMELGATVCTPQRPLCSQCPVESLCRARQRVEQEQLLASGSLSGSPDVEECAPNTGQCHLCLPPSEPWDQTLGVVNFPRKASRKPPREESSATCVLEQPGALGAQILLVQRPNSGLLAGLWEFPSVTWEPSEQLQRKALLQELQRWAGPLPATHLRHLGEVVHTFSHIKLTYQVYGLALEGQTPVTTVPPGARWLTQEEFHTAAVSTAMKKVFRVYQGQQPGTCMGSKRSQVSSPCSRKKPRMGQQVLDNFFRSHISTDAHSLNSAAQ [R97I]	0.00215
MRKPRAAVGSGHRKQAASQEGRQKHAKNNSQAKPSACDGLARQPEEVVLQASVSSYHLFRDVAEVTAFRGSLLSWYDQEKRDLPWRRRAEDEMDLDPRAYAVWVSEVMLQQTQVATVINYYTGWMQKWPTLQDLASASLEEVNQLWAGLGYYSRGRRLQEGARKVVEELGGHMPRTAETLQQLLPGVGRYTAGAIASIAFGQATGVVDGNVARVLCRVRAIGADPSSTLVSQQLWGLAQQLVDPARPGDFNQAAMELGATVCTPQRPLCSQCPVESLCRARQRVEQEQLLASGSLSGSPDVEECAPNTGQCHLCLPPSEPWDQTLGVVNFPRKASRKPPREESSATCVLEQPGALGAQILLVQRPNSGLLAGLWEFPSVTWEPSEQLQRKALLQELQRWAGPLPATHLRHLGEVVHTFSHIKLTYQVYGLALEGQTPVTTVPPGARWLTQEEFHTAAVSTAMKKVFRVYQGQQPGTCMGSKRSQVSSPCSRKKPRMGQQVLDNFFRSHISTDAHSLNSAAQ [R97P]	-1.03
